Measurements reported in US20200199244A1 (published 2020).

The binders below were run against human CD40 (human, UniProt P25942 21-277) (assay: cell-based or functional assay).
human CD40, sequence (P25942 21-277 limits assumed): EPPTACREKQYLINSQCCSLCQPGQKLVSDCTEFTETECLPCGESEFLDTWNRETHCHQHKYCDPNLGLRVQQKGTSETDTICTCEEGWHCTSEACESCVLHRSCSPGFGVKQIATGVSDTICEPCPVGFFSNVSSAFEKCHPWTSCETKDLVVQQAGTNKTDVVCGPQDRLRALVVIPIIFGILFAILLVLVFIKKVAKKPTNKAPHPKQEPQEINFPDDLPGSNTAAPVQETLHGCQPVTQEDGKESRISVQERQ

Binder	hIZCD40L-driven Human B Cell Proliferation EC50 [nM]	CHO-hCD40L-driven DC Activation IL-12 EC50 [nM]
BMS3h-198-1 (other) VH: EVQLLESGGGLVQPGGSLRLSCAASGSTIAGYEMWWVRQAPGKGLERVSAISGSGGSTYYADSVKGRFTISRDDSKNTLYLQMNSLRAEDTAVYYCARDPYSFDYWGQGTLVTVSS	64	–
BMS3h-198-5 (other) VH: EVQLLESGGGLVQPGGSLRLSCAASGFTFAGYEMWWVRQAPGKGLERVSAISGSGGSTYYADSVKGRFTISRDDSKNTLYLQMNSLRAEDTAVYHCAKEPYSYDYWGQGTLVTVSS	9	–
BMS3h-198-19 (other) VH: EVQLLESGGGLVQPGGSLRLSCAASGFTFAGYELWWVRQAPGKGLERVSAISGSGGSTYYADSVKGRFTISRDDSKNTLYLQMNSLRAEDTAVYYCARDPYSFDYRGQGTLVTVSS	19	–
BMS3h-198-28 (other) VH: EVQLLESGGGLVQPGGSLRLSCAASGFTFAGYEMWWFRQAPGKGLERVSAISGSGGSTYYADSVKGRFTISRDDSKNTLYLQMNSLRAEDTAVYYCAKDPYSFDNWGQGTLVTVSS	20	–
BMS3h-198-2 (other) VH: EVQPLESGGGLVQPGGSLRLSCAASGFTFAGYEMWWVRQAPGKGLERISAISGSGGSTYYADSVKGRFTISRDDSKNTLYLQMNSLRAEDTAVYYCARDPYSFDYWGQGTLVTVSS	207	–
BMS3h-198-24 (other) VH: EVQLLESGGGLVQPGGSLRLSCAASGFTFAGYEMWWVRQAPGKGLERVSAISGSGGSTYYADSVKGRFTISRDDSKNTLYLQMNSLRAEDTAVYYCAKEPYSFDSWGQGTLVTVSS	34	–
BMS3h-202-5 (other) VH: EVQLLESGGGLVQPGGSLRLSCAASGFTFPTAEMLWVRQAPGKGLEWVSSISASGGSTYYADSVKGRFTISRDNSKNTLYLQMNSLRAEDTAVYYCAKEPVSYVATFDYWGQGTLVTVSS	6500	–
BMS3h-202-11 (other) VH: EVQLLESGGGLVQPGGSLRLSCAASGFTFPTAEMLWVRKAPGKGLEWVSSISASGGSTYYADSVKGRFTISRDNSKNTLYLQMNSLRAEDAAVYYCAKEPVSYVATFDYWGQGTLVTVSS	201	–
BMS3h-202-10 (other) VH: EVQLLESGGGLVQPGGSLRLSCAASGFTFPTAEMLWVRQAPGKGLEWVSSISASGGSTYYADSVKGRFTISRDNSKNTLYLQMNSLRAEDTAVYYCAKEPVYYVATFDYWGQGTLVTVSS	289	–
BMS3h-217 (other) VL: DIQMTQSPSSLSASVGDRVTITCRASHFIGTLLSWYQQKPGKAPKLLITYGSLLQSGVPSRFSGSGSGTDFTLTISSLQPEDFATYYCGQGVLWPATFGQGTKVEIKR	3200	–
BMS3h-217-9 (other) VL: DIQMTQSPSSLSASVGDRVTITCRASHFIGTLLSWYQHKPGKAPKLLITYGSMLQSGVPSRFSGSGSGTDFTLTISSLQPEDFATYYCGQGVLWPATFGQGTKVEIKR	380	–
BMS3h-217-30 (other) VL: DIQMTQSPSSLSASVGDRVTITCRASHFIGTLLSWYQLKPGKAPKLLITYGSWLQSGVPSRFSGSGSGTDFTLTISSLQPEDFATYYCGQGVLWPATFGQGTKVEIKR	80	> 7700
BMS3h-217-17 (other) VL: DIQIIQSPSSLSASVGDRVTITCRASHFIGTLLSWYQQKPGKAPKLLITYGSLLQSGVPSRFSGSGSGTDFTLTISSLQPEDFATYYCGQGVLWPPTFGQGTKVEIKR	1950	–
BMS3h-217-7 (other) VL: DIQMTQSPSSLSASVGDRVTITCRASHFIGSLLSWYQHKPGKAPKLLITYGSLLQSGVPSRFSGSGSGTDFTLTISSLQPEDFATYYCGQGVLWPATFGQGTKVEIKR	220	–
BMS3h-217-2305 (other) VL: DIQMTQSPSSLSASVGDRVTITCRASHFIGSLLSWYQVKPGKAPKLLITWASYLQSGVPSRFSGSGSGTDFTLTISSLQPEDFATYYCGQGVLWPATFGQGTTVEIKR	11	–
BMS3h-217-31 (other) VL: DIQMTQSPSSLSASVGDRVTITCRASHFIGTLLSWYQQKPGKAPKLLITYGSLLQSGVPSRFSGSGFGTDFTLTISSLQPEDFATYYCGQEVLWPATFGQGTKVEIKR	> 700	–
BMS3h-193-29 (other) VL: DIQMTQSPSSLSASVGDRVTITCRASQTIERRLNWYQQKPGKAPKLLIYLATRLQSGVPSRFSGSGSGTDFTLTISSLQPEDFATYYCHQYESPPLTFGQGTKVEIKR	1380	–

What follows are binders tested against T1, biotinylated human CD40 (BMS) (human, UniProt P25942 21-193, limits assumed, biotinylated (sites not given)) (assay: BIAcore SPR, immobilised biotinylated human CD40, 1:1 fit;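 note: dAbs passed as doubling dilutions over CD40 chip at 25 °C in HBS-EP running buffer, 300 s dissociation, traces double-referenced against blank flow cell and buffer injection, global Langmuir fit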).
T1 construct: Ligand immobilised on the streptavidin BIAcore chip
T1 sequence (P25942 21-193 limits assumed): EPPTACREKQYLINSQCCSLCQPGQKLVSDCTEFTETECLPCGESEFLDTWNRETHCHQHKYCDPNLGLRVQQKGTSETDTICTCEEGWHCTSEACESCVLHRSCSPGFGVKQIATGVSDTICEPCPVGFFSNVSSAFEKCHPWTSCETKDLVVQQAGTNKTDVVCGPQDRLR

Binder	Kd [nM]	koff [s⁻¹]	kon [M⁻¹ s⁻¹]
BMS3h-38 (other, domain antibody (dAb): single human VH domain) VH: EVQLLESGGGLVQPGGSLRLSCAASGFTFEEEEMIWVRQAPGKGLEWVSAISGSGGSTYYADSVKGRFTISRDNSKNTLYLQMNSLRAEDTAVYYCAKEPFRFDYWGQGTLVTVSS	300	0.0062	21000
BMS3h-56 (other, domain antibody (dAb): single human VH domain) VH: EVQLLESGGGLVQPGGSLRLSCAASGFTFRDYEMWWVRQAPGKGLERVSAINPQGTRTYYADSVKGRFTISRDNSKNTLYLQMNSLRAEDTAVYYCAKLPFIFDYWGQGTLVTVSS	180	0.004	23000
BMS3h-198 (other, domain antibody (dAb): single human VH domain) VH: EVQLLESGGGLVQPGGSLRLSCAASGFTFAGYEMWWVRQAPGKGLERVSAISGSGGSTYYADSVKGRFTISRDDSKNTLYLQMNSLRAEDTAVYYCAKDPYSFDYWGQGTLVTVSS	240	0.00038	1600
BMS3h-37 (other, domain antibody (dAb): single human VH domain) VH: EVQLLESGGGLVQPGGSLRLSCAASGFTFEWYEMQWVRQAPGKGLEWVSAISGDGYRTYYADSVKGRFTISRDNSKNTLYLQMNSLRAEDTAVYYCAKELGYFDYWGQGTLVTVSS	190	0.0036	19000
BMS3h-41 (other, domain antibody (dAb): single human VH domain) VH: EVQLLESGGGLVQPGGSLRLSCAASGFTFTEYEMIWVRQAPGKGLEWVSSISGNGANTYYADSVKGRFTISRDNSKNTLYLQMNSLRAEDTAVYYCAKEPLRFDYWGQGTLVTVSS	840	0.0083	9900
